Molecular target: HCMV capsid (icosahedral T=16 capsid shell of MCP, mCP, mC-BP and SCP) (human cytomegalovirus strain AD169)
Test: co-sedimentation

In the case of “UL32-encoded basic phosphorylated protein pp150 (natural protein)”, the % decrease in chemically treated particles is reported as 5%.

From article PMC3684277
